Measurements as given in US20110165161A1, “ANTI-EPCAM ANTIBODIES THAT INDUCE APOPTOSIS OF CANCER CELLS AND METHODS USING SAME” (priority 2009, published 2011).

Tests used:
[1] = target: T1, human EpCAM (epithelial cell adhesion/activating molecule) (human, UniProt P16422 24-314); assay: cell-based or functional assay
T1 sequence: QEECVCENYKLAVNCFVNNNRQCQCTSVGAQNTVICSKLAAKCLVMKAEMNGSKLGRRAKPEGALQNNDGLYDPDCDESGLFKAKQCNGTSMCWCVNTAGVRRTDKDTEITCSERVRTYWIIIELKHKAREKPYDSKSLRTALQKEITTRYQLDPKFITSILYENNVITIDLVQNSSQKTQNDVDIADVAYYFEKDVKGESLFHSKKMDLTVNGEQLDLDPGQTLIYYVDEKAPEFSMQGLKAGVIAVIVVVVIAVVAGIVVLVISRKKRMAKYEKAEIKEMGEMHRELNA

[2] = target: T2, EGFI-Cr1 wild type (first EGF-like repeat of human EpCAM fused to the constant region of human immunoglobulin … (human, UniProt P01857-1 99-330 = IgG part)); assay: direct ELISA, coated EGFI-Cr1 fusion, 0.1 µg/ml antibody
T2 construct: cDNA covered aa 1-63; Expressed in COS-7 cells; also called WT; EpCAM EGF-1 fusion protein WT
Method: (§1) A direct ELISA was used for testing the reactivity of anti-EpCAM antibodies toward variant EpCAM mutants. Briefly, purified EpCAM EGF-1 fusion proteins (WT, Q24A, E25K, E26D, A35T, N37R, F39A, V40E, N41A, N42E, N43A, R44G, Q45A, Q47A or T49A) and irrelevant control (CEA-Cr1) were pre-diluted to 0.5 μg/ml in coating buffer (8.4 g NaHCO₃, 3.4 g Na₂CO₃ in 1 L H₂O, pH 9.5) and aliquoted (100 μl/well) into 96-well plates. […] Plates were then washed 3 times with PBST followed by the addition of the enzyme substrate TMB (BD Biosciences, Cat. No. 555214). […] The optical densities at 450 nm wavelength were measured on an ELISA plate reader.

EGFI-Cr1 N42E = target: T3, EGFI-Cr1 N42E (human, UniProt P16422 24-63); assay: as above
T3 construct: not shown: the constant region of human immunoglobulin gamma 1 heavy chain (Cr1) fused at the C-terminus
T3 chain: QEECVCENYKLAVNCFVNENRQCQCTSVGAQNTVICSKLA
Method: as §1

EGFI-Cr1 N37R = target: T4, EGFI-Cr1 N37R (human); assay: as above
T4 construct: not shown: The fused constant region of human immunoglobulin gamma 1 heavy chain (Cr1)
T4 chain: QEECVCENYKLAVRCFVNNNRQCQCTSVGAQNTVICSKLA
Method: as §1

EGFI-Cr1 T49A = target: T5, EGFI-Cr1 T49A (human, UniProt P16422 24-63); assay: as above
T5 construct: not shown: the constant region of human immunoglobulin gamma 1 heavy chain (Cr1) fused at the C-terminus
T5 chain: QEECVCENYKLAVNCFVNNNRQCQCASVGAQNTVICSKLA
Method: as §1

EGFI-Cr1 Q24A = target: T6, EGFI-Cr1 Q24A (human, UniProt P16422 25-63); assay: as above
T6 construct: not shown: The fused constant region of human immunoglobulin gamma 1 heavy chain (Cr1)
T6 chain: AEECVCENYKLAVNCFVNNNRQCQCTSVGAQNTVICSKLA
Method: as §1

EGFI-Cr1 Q47A = target: T7, EGFI-Cr1 Q47A (human, UniProt P16422 24-63); assay: as above
T7 construct: not shown: the constant region of human immunoglobulin gamma 1 heavy chain (Cr1) fused at the C-terminus
T7 chain: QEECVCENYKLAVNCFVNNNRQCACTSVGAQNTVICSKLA
Method: as §1

EGFI-Cr1 N43A = target: T8, EGFI-Cr1 N43A (human, UniProt P16422 24-63); assay: as above
T8 construct: not shown: the constant region of human immunoglobulin gamma 1 heavy chain (Cr1) fused at the C-terminus
T8 chain: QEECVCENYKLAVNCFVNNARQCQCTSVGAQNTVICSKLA
Method: as §1

EGFI-Cr1 Q45A = target: T9, EGFI-Cr1 Q45A (human, UniProt P16422 24-63); assay: as above
T9 construct: not shown: the constant region of human immunoglobulin gamma 1 heavy chain (Cr1) fused at the C-terminus
T9 chain: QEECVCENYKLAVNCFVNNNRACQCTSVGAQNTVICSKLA
Method: as §1

EGFI-Cr1 V40E = target: T10, EGFI-Cr1 V40E (human); assay: as above
T10 construct: not shown: The fused constant region of human immunoglobulin gamma 1 heavy chain (Cr1)
T10 chain: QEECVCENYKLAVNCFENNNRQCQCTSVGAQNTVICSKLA
Method: as §1

EGFI-Cr1 F39A = target: T11, EGFI-Cr1 F39A (human, UniProt P16422 24-63); assay: as above
T11 construct: not shown: The fused constant region of human immunoglobulin gamma 1 heavy chain (Cr1)
T11 chain: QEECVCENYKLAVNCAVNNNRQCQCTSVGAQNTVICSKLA
Method: as §1

EGFI-Cr1 A35T = target: T12, EGFI-Cr1 A35T (human, UniProt P16422 24-63); assay: as above
T12 construct: not shown: The fused constant region of human immunoglobulin gamma 1 heavy chain (Cr1)
T12 chain: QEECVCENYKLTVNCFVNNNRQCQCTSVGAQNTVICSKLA
Method: as §1

EGFI-Cr1 N41A = target: T13, EGFI-Cr1 N41A (human, UniProt P16422 24-63); assay: as above
T13 construct: not shown: The fused constant region of human immunoglobulin gamma 1 heavy chain (Cr1)
T13 chain: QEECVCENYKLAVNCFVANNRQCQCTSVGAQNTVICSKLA
Method: as §1

EGFI-Cr1 R44G = target: T14, EGFI-Cr1 R44G (human, UniProt P16422 24-63); assay: as above
T14 construct: not shown: the constant region of human immunoglobulin gamma 1 heavy chain (Cr1) fused at the C-terminus
T14 chain: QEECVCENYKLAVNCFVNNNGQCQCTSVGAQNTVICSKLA
Method: as §1

EGFI-Cr1 E26D = target: T15, EGFI-Cr1 E26D (human, UniProt P16422 24-63); assay: as above
T15 construct: not shown: The fused constant region of human immunoglobulin gamma 1 heavy chain (Cr1)
T15 chain: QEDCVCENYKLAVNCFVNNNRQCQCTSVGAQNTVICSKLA
Method: as §1

EGFI-Cr1 E25K = target: T16, EGFI-Cr1 E25K (human, UniProt P16422 24-63); assay: as above
T16 construct: not shown: The fused constant region of human immunoglobulin gamma 1 heavy chain (Cr1)
T16 chain: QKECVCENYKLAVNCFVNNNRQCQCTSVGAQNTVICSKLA
Method: as §1

[3] = target: T1, human EpCAM (epithelial cell …); assay: cell-based or functional assay; remark: listed apart in the source
[4] = target: T1, human EpCAM (epithelial cell …); assay: flow cytometry, CHO/EpCAM cells, 0.1 µg/ml antibody
Method: A 300× dilution of human cell hyper-immune serum (HPS 300×) was used as binding positive control for both cell lines here. After 1 hr incubation at 4° C., cells were washed twice with 200 μl FACS buffer (1×PBS containing 1% FBS), stained with 100 μl of 1 μg/ml goat-anti-mouse IgG-PE (Southern Biotech, Cat. No. 1032-09) in FACS buffer and then incubated at 4° C. for 30 min. Cells were washed thrice with FACS buffer and analyzed by flow cytometry (BD LSR, BD Life Sciences).

B1: murine monoclonal antibody 12H8 (antibody, mouse IgG2a, V domains shown)
VH: QIQLVQSGPELKKPGETVKISCKTSGYTFTDYSMHWVNQAPGKGLKWMGWINTETGEPTYTDDFKGRFAFSLETSASTAYLQINNLKNEDTATYFCARTAVYWGQGTTLTVSS
VL: DIQMTQSPSSLSASLGERVSLTCRASQEISGSLSWLQQKPDGTIKRLIYAASTLNSGVPKRFSGRRSGSDYSLTISSLESEDFVDYYCLQYSSYPWSFGGGTKLEIKR
notes: Mouse IgG2a, kappa, from hybridoma; also called m342-12H8.3; m12H8
% Annexin V/PI-positive cells, DLD-1, 1.0 µg/ml mAb [1]: 61% | % Annexin V/PI-positive cells, DLD-1, 3.0 µg/ml mAb [1]: 67% | % Annexin V/PI-positive cells, DLD-1, 10 µg/ml mAb [1]: 72% | % Annexin V/PI-positive cells, FaDu, 1.0 µg/ml mAb [1]: 42% | % Annexin V/PI-positive cells, FaDu, 3.0 µg/ml mAb [1]: 43% | % Annexin V/PI-positive cells, FaDu, 10 µg/ml mAb [1]: 44% | % Annexin V/PI-positive cells, LNCaP, 1.0 µg/ml mAb [1]: 61% | % Annexin V/PI-positive cells, LNCaP, 3.0 µg/ml mAb [1]: 67% | % Annexin V/PI-positive cells, LNCaP, 10 µg/ml mAb [1]: 58% | % Annexin V/PI-positive cells, NCI-H520, 1.0 µg/ml mAb [1]: 24% | % Annexin V/PI-positive cells, NCI-H520, 3.0 µg/ml mAb [1]: 29% | % Annexin V/PI-positive cells, NCI-H520, 10 µg/ml mAb [1]: 34% | % Annexin V/PI-positive cells, NCI-N87, 1.0 µg/ml mAb [1]: 67% | % Annexin V/PI-positive cells, NCI-N87, 3.0 µg/ml mAb [1]: 62% | % Annexin V/PI-positive cells, NCI-N87, 10 µg/ml mAb [1]: 66% | % Annexin V/PI-positive cells, NIH:OVCAR-3, 1.0 µg/ml mAb [1]: 59% | % Annexin V/PI-positive cells, NIH:OVCAR-3, 3.0 µg/ml mAb [1]: 62% | % Annexin V/PI-positive cells, NIH:OVCAR-3, 10 µg/ml mAb [1]: 63% | % Annexin V/PI-positive cells, T-47D, 1.0 µg/ml mAb [1]: 49% | % Annexin V/PI-positive cells, T-47D, 3.0 µg/ml mAb [1]: 54% | % Annexin V/PI-positive cells, T-47D, 10 µg/ml mAb [1]: 56% | relative binding activity (% of WT) [2]: 100% | relative binding activity (% of WT) (EGFI-Cr1 N42E): 23% | relative binding activity (% of WT) (EGFI-Cr1 N37R): 94% | relative binding activity (% of WT) (EGFI-Cr1 T49A): 94% | relative binding activity (% of WT) (EGFI-Cr1 Q24A): 0% | relative binding activity (% of WT) (EGFI-Cr1 Q47A): 93% | relative binding activity (% of WT) (EGFI-Cr1 N43A): 96% | relative binding activity (% of WT) (EGFI-Cr1 Q45A): 89% | relative binding activity (% of WT) (EGFI-Cr1 V40E): 93% | relative binding activity (% of WT) (EGFI-Cr1 F39A): 96% | relative binding activity (% of WT) (EGFI-Cr1 A35T): 95% | relative binding activity (% of WT) (EGFI-Cr1 N41A): 81% | relative binding activity (% of WT) (EGFI-Cr1 R44G): 91% | relative binding activity (% of WT) (EGFI-Cr1 E26D): 94% | relative binding activity (% of WT) (EGFI-Cr1 E25K): 1% | % of Annexin V + PI staining (untreated background subtracted), NCI-H358, 10 µg/ml mAb, Exp1 [3]: 36% | % of Annexin V + PI staining (untreated background subtracted), NCI-H358, 10 µg/ml mAb, Exp2 [3]: 33% | % of Annexin V + PI staining (untreated background subtracted), NCI-H358, 10 µg/ml mAb, Exp3 [3]: 31% | % of Annexin V + PI staining (untreated background subtracted), NCI-H358, 10 µg/ml mAb, Exp4 [3]: 40% | % of Annexin V + PI staining (untreated background subtracted), NCI-H358, 10 µg/ml mAb, Exp5 [3]: 28% | MFI [4]: 6650 MFI
